Measured values taken from US20240255509A1, “COMPOSITIONS AND METHODS RELATED TO K180 DIMETHYLATED H1.0 PROTEIN” (Aelan Cell Technologies, Inc., priority 2016, published 2024).

Legend:
Test in all cases: In vitro methylation with GLP, products identified by LC-MS
Type in all cases: biochemical
[1] = molecular target: T1, recombinant human H1.0 protein (Homo sapiens, UniProt P07305); conditions: 1 μg full-length protein
T1 construct: full-length recombinant human H1.0 (NEB, M2501S); purchased NEB M2501S (H1.0); M0235S (G9A)
Procedure: (§1) In order to identify the precise sites of methylation by G9A and GLP methyltransferases on histone H1.0, in vitro methylation assays were performed and subsequently analyzed by Liquid Chromatography and High-resolution Mass Spectrometry (LC-MS) analysis. Methylation reactions were set up using either G9A methyltransferase (NEB, M0235S, Lot #0031201) or GLP methyltransferase (Cayman Chemical, 10755). The methyl donor in each reaction was unlabeled S-Adenosyl-L-Methionine (NEB, B9003S). […]
(§2) For the Liquid Chromatography and High-resolution Mass Spectrometry (LC-MS) analysis, samples were prepared as described above and about 1 μg o the product was injected onto a Thermo Scientific Easy nLC system configured with a 10 cm×100 um trap column and a 25 cm×100 um ID resolving column. […] This ensured optimal full-scan data for quantification. […]
(§3) Protein identification was performed using Thermo Scientific Proteome Discoverer version 1.4 (including Sequest and Percolator algorithms) using RefSeqHuman sequence database. […] Protein quantification was performed using Pinpoint version 1.4 software. The Pinpoint quantification workflow included importing the Proteome Discoverer .msf files as spectral libraries. Identified peptides were subsequently quantified in MS .raw files using the Pinpoint peak finding, chromatographic alignment and area calculation algorithms. […]

[2] = molecular target: T2, unmodified H1.0 peptide ([…] (SEQ ID NO:42)) (Homo sapiens, UniProt P07305); conditions: 10 U enzyme, 3.2 mM S-Adenosyl-L-Methionine, 37° C. 1 hour, spectral counts
T2 construct: purchased ThermoFisher Scientific (peptide); NEB (G9A) M0235S (G9A)
Procedure: as §1, §2, §3

[3] = molecular target: T3, K180 dimethylated H1.0 peptide (SEQ ID NO:3) (Homo sapiens, UniProt P07305); conditions: K180 dimethylated peptide as substrate
T3 construct: purchased ThermoFisher Scientific (peptide); Cayman Chemical (GLP) 10755 (GLP)
Procedure: as §1, §2, §3

B1: GLP: recombinant G9A-like protein (GLP) methyltransferase (Cayman Chemical, 10755) (protein, UniProt Q9H9B1 2-1298, looked up)
Histone-lysine …: AAADAEAVPARGEPQQDCCVKTELLGEETPMAADEGSAEKQAGEAHMAADGETNGSCENSDASSHANAAKHTQDSARVNPQDGTNTLTRIAENGVSERDSEAAKQNHVTADDFVQTSVIGSNGYILNKPALQAQPLRTTSTLASSLPGHAAKTLPGGAGKGRTPSAFPQTPAAPPATLGEGSADTEDRKLPAPGADVKVHRARKTMPKSVVGLHAASKDPREVREARDHKEPKEEINKNISDFGRQQLLPPFPSLHQSLPQNQCYMATTKSQTACLPFVLAAAVSRKKKRRMGTYSLVPKKKTKVLKQRTVIEMFKSITHSTVGSKGEKDLGASSLHVNGESLEMDSDEDDSEELEEDDGHGAEQAAAFPTEDSRTSKESMSEADRAQKMDGESEEEQESVDTGEEEEGGDESDLSSESSIKKKFLKRKGKTDSPWIKPARKRRRRSRKKPSGALGSESYKSSAGSAEQTAPGDSTGYMEVSLDSLDLRVKGILSSQAEGLANGPDVLETDGLQEVPLCSCRMETPKSREITTLANNQCMATESVDHELGRCTNSVVKYELMRPSNKAPLLVLCEDHRGRMVKHQCCPGCGYFCTAGNFMECQPESSISHRFHKDCASRVNNASYCPHCGEESSKAKEVTIAKADTTSTVTPVPGQEKGSALEGRADTTTGSAAGPPLSEDDKLQGAASHVPEGFDPTGPAGLGRPTPGLSQGPGKETLESALIALDSEKPKKLRFHPKQLYFSARQGELQKVLLMLVDGIDPNFKMEHQNKRSPLHAAAEAGHVDICHMLVQAGANIDTCSEDQRTPLMEAAENNHLEAVKYLIKAGALVDPKDAEGSTCLHLAAKKGHYEVVQYLLSNGQMDVNCQDDGGWTPMIWATEYKHVDLVKLLLSKGSDINIRDNEENICLHWAAFSGCVDIAEILLAAKCDLHAVNIHGDSPLHIAARENRYDCVVLFLSRDSDVTLKNKEGETPLQCASLNSQVWSALQMSKALQDSAPDRPSPVERIVSRDIARGYERIPIPCVNAVDSEPCPSNYKYVSQNCVTSPMNIDRNITHLQYCVCIDDCSSSNCMCGQLSMRCWYDKDGRLLPEFNMAEPPLIFECNHACSCWRNCRNRVVQNGLRARLQLYRTRDMGWGVRSLQDIPPGTFVCEYVGELISDSEADVREEDSYLFDLDNKDGEVYCIDARFYGNVSRFINHHCEPNLVPVRVFMAHQDLRFPRIAFFSTRLIEAGEQLGFDYGERFWDIKGKLFSCRCGSPKCRHSSAALAQRQASAAQEAQEDGLPDTSSAAAADPL
[1]
  sites of methylation on full-length H1.0: methylates a large number of lysine residues on the C-terminal tail of H1.0, lacking the specificity of G9A
[2]
  peptides dimethylated at H1.0K180, % of all peptides: 96.6%
[3]
  peptides further methylated (H1.0K180 and H1.0K174), % of peptides: 1.02%
